The values that follow come from patent publication US6858210B1, “Therapeutic and diagnostic domain 1 β2GPI polypeptides and methods of using same” (La Jolla Pharmaceutical Co., priority 1998, dated 2005).

For assay [1], the system named is affinity purified β2GPI-dependent antiphospholipid antibody. Kind of assay: Cardiolipin based ELISA, recombinant β2GPI proteins bound to cardiolipin coated wells. Conditions: cardiolipin coated plates. Type of assay: binding, human. The protocol:
Microtiter plates (Immulon 1 #3350 from Dynex Technologies) were coated with 30 μl of a 50 μg/ml solution of cardiolipin in ethanol, dried overnight at 4° C., washed three times with PBS, pH 7.2, and blocked for one hour at room temperature with 75 μl of 5% (wt/v) fish gelatin, (Hipure Liquid Gelatin, Norland Products Inc. 695 Joyce Kilmer Ave., New Brunswick N.J., USA). The plates were washed three times with PBS, charged with 50 μl of full length recombinant β2GPI at 10 μg/ml in 5% fish gelatin and incubated at 37° C. for one hour. […] The optical density, at 550 nm, was determined by reading the plates in a microplate autoreader (Bio-Teck Instruments, model EL311).
Seven different recombinant β2GPI mutant proteins were examined to determine if they could support the direct binding of affinity purified β2GPI-dependent antiphospholipid antibody preparations in the presence of anionic phospholipid. All seven recombinant mutant β2GPI were assayed with rabbit anti-β2GPI and with an affinity purified β2GPI-dependent antiphospholipid antibody preparation. Each mutant recombinant β2GPI protein was tested, in a dose dependent fashion and GST-6his was included as a negative control. The recombinant mutant β2GPI proteins were bound to microtiter plates that had previously been coated with cardiolipin. […]
In general terms: ELISA stands for enzyme-linked immunosorbent assay.

Assay [2] concerns the target affinity purified β2-GPI domain 1 specific antibodies from patients 6701 and 6626. Description: Surface plasmon resonance Kd determination on immobilized antibodies. Type of assay: binding, human. Conditions: read-out: Apparent equilibrium dissociation constant. The protocol:
Reagents. CM5 chips, NHS and EDC and HBS-EP buffer were from BIAcore. Human pooled normal IgG (Zymed) was immobilized in a separate flow cell on the chip and used as a negative control. Affinity purified 2-GPI domain 1 specific antibodies from 2 patients (6701 and 6626) were immobilized in separate flow cells.
Surface Plasmon Resonance. All experiments were done on a BIAcore™ 2000 instrument at 25° C. with a flow rate of 10 μL/minute. Chip equilibration and binding studies were performed with degassed HBS-EP buffer, which consists of 0.01 M HEPES pH 7.4, 0.15 M NaCl, 3 mM EDTA and 0.005% (v/v) surfactant β20. […]
Titrations. […] Since the approach to binding equilibrium was incomplete during the measurement period, the equilibrium binding value (Req) was determined by fitting the association curves to the following equation using the manufacturer software (BiaEvaluation version 2.2, Uppsala, Sweden)): Rt=Req(1−e^−ks(t−t0))+R0 where Rt is the measured BIAcore response at time t, Req is the equilibrium plateau response, t is time, t0 is initial time, ks is an apparent association constant (ks=kaC+kdis where ka is the association constant, C is the analyte concentration and kdis is the dissociation constant), and R0 is a response offset, (Marquart-Levenberg algorithm). […]
(SPR reads the build-up and loss of mass on a sensor chip optically.)

Assay [3] concerns the target affinity purified β2GPI-dependent antiphospholipid antibody preparation 6641 (from patient 6641). Description: comp. inhibition ELISA.
The target of assay [4] is affinity purified β2GPI-dependent antiphospholipid antibody from patient 7101. Description: comp. inhibition ELISA.
Assay [5] deals with affinity purified β2GPI-dependent antiphospholipid antibody from patient 6632. Description: comp. inhibition ELISA.
For assay [6], the target named is β2GPI-dependent antiphospholipid antibody from patient 6626. Kind of assay: comp. inhibition ELISA.
In assay [7] the target is affinity purified β2GPI-dependent antiphospholipid antibody from patient 6652. Description: comp. inhibition ELISA.
For assay [8], the target named is affinity purified β2GPI-dependent antiphospholipid antibody from patient 7008. Kind of assay: comp. inhibition ELISA.
The target of assay [9] is β2GPI-dependent antiphospholipid antibody from patient 6701. Kind of assay: comp. inhibition ELISA.
The target in assay [10] is affinity purified β2GPI-dependent antiphospholipid antibody from patient 6644. Description: comp. inhibition ELISA.
Assay [11] concerns the target affinity purified β2GPI-dependent antiphospholipid antibody from patient 7104. Description: comp. inhibition ELISA.
In assay [12] the target is β2GPI-dependent antiphospholipid antibody from patient 7015. Description: comp. inhibition ELISA.

Read-outs that look alike come from different tables or passages of the source.

B1: 12345: recombinant full length human β2GPI (domains 1-5) with C-terminal GlyHis6, baculovirus expressed (protein)
chain: GRTCPKPDDLPFSTVVPLKTFYEPGEEITYSCKPGYVSRGGMRKFICPLTGLWPINTLKCTPRVCPFAGILENGAVRYTTFEYPNTISFSCNTGFYLNGADSAKCTEEGKWSPELPVCAPIICPPPSIPTFATLRVYKPSAGNNSLYRDTAVFECLPQHAMFGNDTITCTTHGNWTKLPECREVKCPFPSRPDNGFVNYPAKPTLYYKDKATFGCHDGYSLDGPEEIECTKLGNWSAMPSCKASCKLPVKKATVVYQGERVKIQEKFKNGMLHGDKVSFFCKNKEKKCSYTEDAQCIDGTIEVPKCFKEHSSLAFWKTDASDVKPCGHHHHHH
B1: the “direct binding of patient antibody” value in [1] is listed as “readily detected”.

B2: 1----: recombinant β2GPI protein with domain 1 only (SEQ ID NO:4 region), His6 tail (protein)
chain: GRTCPKPDDLPFSTVVPLKTFYEPGEEITYSCKPGYVSRGGMRKFICPLTGLWPINTLKCTPRVGHHHHHH
As for B2, the Kd was determined as 0.333 ± 0.018 µM in [2] (immobilized antibody from patient 6626) and 0.417 ± 0.036 µM in [2] (immobilized antibody from patient 6701).

B3: recombinant β2GPI domain 5 with GlyHis6 (----5) (protein)
chain: GRASCKLPVKKATVVYQGERVKIQEKFKNGMLHGDKVSFFCKNKEKKCSYTEDAQCIDGTIEVPKCFKEHSSLAFWKTDASDVKPCGHHHHHH
A word on the IC50: it is the point on the concentration scale where inhibition reaches its midpoint. As to B3, the IC50 in assay [3], in [4], in assay [5], in assay [6], in assay [7] and in [8] was more than 47 µM in each case. For the same molecule, the IC50 in [9], in assay [10], in assay [11] and in assay [12] was more than 47 µM in each case. Further, the Max inhibition was 10% in assay [3]; 5% in assay [4]; 10% in assay [5]; 10% in assay [6]; 15% in assay [7]; 20% in assay [8]. The Max inhibition in [9] was 10%; in assay [10], 10%; in assay [11] it was 0%; in assay [12], 10%.
